The values that follow come from publication PMC9021268.

The target of one assay is tubulin (microtubules). As to the kind of experiment: optical trap tip-attachment detachment rate.
Assay [1] deals with Dynamic microtubules, coverslip-anchored (grown from GMPCPP-stabilized seeds with unpolymerized tubulin) (bovine) (UniProt Q6B856). As to the kind of experiment: optical trap force clamp (detachment of kinetochore-decorated beads from microtubule tips); low density of kinetochores on anti-His beads (Dsn1:bead ratio 200); coverslip-anchored dynamic microtubules; 5 pN; 3 nM Dam1c and ATP in the buffer; 0.5 μM AurB*-KD flowed in.

Assay [2] has the same target. As to the kind of experiment: optical trap force clamp (detachment of kinetochore-decorated beads from microtubule tips); low density of kinetochores on anti-His beads (Dsn1:bead ratio 200); coverslip-anchored dynamic microtubules; 1.5 pN; 3 nM Dam1c and ATP in the buffer; 0.5 μM active AurB* flowed in.
The target is the same in assay [3]. In words: optical trap force clamp (detachment of kinetochore-decorated beads from microtubule tips); high density of kinetochores on anti-His beads (Dsn1:bead ratio 3,300); coverslip-anchored dynamic microtubules; ~1 pN; 3 nM Dam1c and ATP in the buffer; 5 μM AurB*-KD flowed in.
The target is the same in assay [4]. As to the kind of experiment: optical trap force clamp (detachment of kinetochore-decorated beads from microtubule tips); low density of kinetochores on anti-His beads (Dsn1:bead ratio 200); coverslip-anchored dynamic microtubules; 1.5 pN; 3 nM Dam1c and ATP in the buffer; 0.5 μM AurB*-KD flowed in.
Assay [5] shares this target. In words: optical trap force clamp (detachment of kinetochore-decorated beads from microtubule tips); high density of kinetochores on anti-His beads (Dsn1:bead ratio 3,300); coverslip-anchored dynamic microtubules; ~1 pN; 3 nM Dam1c and ATP in the buffer; 5 μM active AurB* flowed in.
Assay [6] shares this target. In words: optical trap force clamp (detachment of kinetochore-decorated beads from microtubule tips); low density of kinetochores on anti-His beads (Dsn1:bead ratio 200); coverslip-anchored dynamic microtubules; 5 pN; 3 nM Dam1c and ATP in the buffer; 0.5 μM active AurB* flowed in.
For assay [7] the target is unchanged. In words: optical trap force clamp (detachment of kinetochore-decorated beads from microtubule tips); high density of kinetochores on anti-His beads (Dsn1:bead ratio 3,300); coverslip-anchored dynamic microtubules; ~1 pN; 3 nM Dam1c and ATP in the buffer; 0.5 μM active AurB* flowed in.
The mark [8] stands for this setting: reference: 5 µM AurB*-KD flowed in.

Chain of UniProt Q6B856 (Q6B856 whole entry, looked up): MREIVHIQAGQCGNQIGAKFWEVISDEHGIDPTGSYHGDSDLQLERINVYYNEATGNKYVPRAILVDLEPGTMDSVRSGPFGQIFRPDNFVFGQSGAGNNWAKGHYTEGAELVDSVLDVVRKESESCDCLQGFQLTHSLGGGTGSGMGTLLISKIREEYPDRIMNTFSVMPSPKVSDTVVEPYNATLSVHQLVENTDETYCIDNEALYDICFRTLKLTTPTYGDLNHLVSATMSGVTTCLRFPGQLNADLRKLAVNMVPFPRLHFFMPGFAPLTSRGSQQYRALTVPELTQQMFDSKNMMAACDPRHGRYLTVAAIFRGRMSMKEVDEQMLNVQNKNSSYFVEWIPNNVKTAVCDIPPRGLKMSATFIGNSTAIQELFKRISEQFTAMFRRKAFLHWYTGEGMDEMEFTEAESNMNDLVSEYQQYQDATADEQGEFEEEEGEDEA

For the substance “Ndc80 (from UniProt P40460) 0.5 µM AurB* flowed in”, the “other: detachment rate” value with tubulin (microtubules) (reference: 0.5 µM AurB*-KD flowed in) is “weaker; reference 10.4 ± 3.3”; with tubulin (microtubules) (setting [8]), “weaker; reference 2.3 ± 0.9”.

For “Ndc80 (from UniProt P40460) 5 µM AurB* flowed in”, in the assay with tubulin (microtubules) (setting [8]), the “other: detachment rate” value is reported as “weaker; reference 2.3 ± 0.9”.

“Mps1-1 kinetochores (native kinetochores purified from budding yeast strain SBY8726) (from UniProt P40568 1-576; P40460 1-691; P53148 1-917) (complex)”: the detachment rate in assay [1] was determined as 7 h⁻¹; in assay [2] it was 28.9 h⁻¹; in assay [3] it was 2.3 h⁻¹; in assay [4], 10.4 h⁻¹; in assay [5], 7.2 h⁻¹; in assay [6] it was 7 h⁻¹. The detachment rate in assay [7] stood at 4.6 h⁻¹.
